T1: E-domain of betaglycan (BGe) (Rattus norvegicus, UniProt P26342 24-409)
T1 construct: also called sRIIIe; sBGe
T1 sequence: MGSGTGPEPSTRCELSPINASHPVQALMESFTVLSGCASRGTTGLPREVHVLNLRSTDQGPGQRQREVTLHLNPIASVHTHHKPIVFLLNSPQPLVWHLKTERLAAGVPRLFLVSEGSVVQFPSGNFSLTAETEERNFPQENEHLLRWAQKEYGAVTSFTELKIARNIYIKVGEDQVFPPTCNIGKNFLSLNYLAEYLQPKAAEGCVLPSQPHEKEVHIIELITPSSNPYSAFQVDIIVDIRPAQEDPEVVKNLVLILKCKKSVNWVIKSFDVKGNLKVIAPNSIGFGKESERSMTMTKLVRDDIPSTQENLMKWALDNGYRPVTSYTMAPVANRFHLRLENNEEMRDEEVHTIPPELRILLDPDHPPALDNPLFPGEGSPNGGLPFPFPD

B1: TGFβ type II receptor extracellular domain (sRII) (receptor)
chain: MIPPHVQKSVNNDMIVTDNNGAVKFPQLCKFCDVRFSTCDNQKSCMSNCSITSICEKPQEVCVAVWRKNDENITLETVCHDPKLPYHDFILEDAASPKCIMKEKKKPGETFFMCSCSSDECNDNIIFSEEYNTSNPD
notes: also called recombinant sRII; extracellular domain of RII

Tests used:
[1] = biological target: T1, E-domain of betaglycan (BGe); assay: electrophoretic mobility shift, 12% native polyacrylamide gel pH 8.8, Coomassie staining
Excerpt: (§1) Referring now to FIG. 1, binding of the E-domain of betaglycan (BGe) and the TGFβ type II receptor extracellular domain (sRII) to TGFβ2. A. Electrophoretic mobility shift assay in which an increasing amount of sRII has been added to a fixed amount of TGFβ2 and then applied to 12% native polyacryamide gel at pH 8.8. The relative molar amounts of TGFβ2 and sRII used in the assay are indicated above the gel. The protein bands were visualized by Coomassie blue staining. B. Electrophoretic mobility shift assay in which an increasing amount of BGe has been added to a fixed amount of TGFβ2 and then applied to 12% native polyacryamide gel at pH 8.8. The relative molar amounts of TGFβ2 and BGe (sRIIIe) used in the assay are indicated above the gel. The protein bands were visualized by Coomassie blue staining. The arrow labeled BC designates the binary complex formed between TGFβ2 and BGe. C. […] Purified TGFβ2 and BGe have also been applied to the SDS gel as controls. Relative molar amounts are indicated above the gel. The protein bands were visualized by Coomassie blue staining. On the basis of the relative amounts of TGFβ2 and BGe (sRIIIe) in the binary complex, together with the relative band intensities for the TGFβ2 and BGe (sRIIIe) controls, we tentatively conclude that BGe and the TGFβ2 homodimer bind with 1:1 stochiometry.

[2] = biological target: B1; assay: as above
Excerpt: as §1

| Binder | binding result [1] | binding result [2] |
| --- | --- | --- |
| B1 | no binding | – |
| TGFβ2 (ligand, also called TGFβ2 homodimer; transforming growth factor beta 2) ALDAAYCFRNVQDNCCLRPLYIDFKRDLGWKWIHEPKGYNANFCAGACPYLWSSDTQHSRVLSLYNTINPEASASPCCVSQDLEPLTILYYIGKTPKIEQLSNMIVKSCKCS | – | no binding |

Reference: patent US20070244042A1 (University of Texas, published 2007)
